Experimental data as given in article PMC4434323.

Experiments:
[1] = target: T1, nhr-204 (R02C2.4) (Caenorhabditis elegans) (UniProt O44543)
T1 sequence: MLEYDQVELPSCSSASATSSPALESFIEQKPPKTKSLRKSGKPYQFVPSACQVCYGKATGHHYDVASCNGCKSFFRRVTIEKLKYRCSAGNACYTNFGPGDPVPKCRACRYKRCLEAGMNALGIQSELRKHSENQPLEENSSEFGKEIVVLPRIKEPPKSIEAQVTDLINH

[2] = target: T2, nhr-46 (C45E5.6) (Caenorhabditis elegans) (UniProt Q95QR2)
T2 sequence: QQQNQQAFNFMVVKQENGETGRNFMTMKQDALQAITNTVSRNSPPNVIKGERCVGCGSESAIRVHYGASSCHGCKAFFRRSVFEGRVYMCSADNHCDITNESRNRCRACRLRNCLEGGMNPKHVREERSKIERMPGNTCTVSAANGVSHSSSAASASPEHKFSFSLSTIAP

[3] = target: T3, atf-5 (T04C10.4) (Caenorhabditis elegans) (UniProt Q22156)
T3 sequence: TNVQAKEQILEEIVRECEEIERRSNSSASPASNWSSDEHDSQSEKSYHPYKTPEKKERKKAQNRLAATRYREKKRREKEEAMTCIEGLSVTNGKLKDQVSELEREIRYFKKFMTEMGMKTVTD

[4] = target: T4, ceh-34 (C10G8.6) (Caenorhabditis elegans) (UniProt Q94165)
T4 sequence: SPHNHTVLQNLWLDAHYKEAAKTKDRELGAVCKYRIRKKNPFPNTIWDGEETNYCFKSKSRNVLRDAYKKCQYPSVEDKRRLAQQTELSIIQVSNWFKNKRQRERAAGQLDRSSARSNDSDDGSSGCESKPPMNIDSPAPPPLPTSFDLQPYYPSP

[5] = target: T5, end-1 (F58E10.2) (Caenorhabditis elegans) (UniProt G5EDN4)
T5 sequence: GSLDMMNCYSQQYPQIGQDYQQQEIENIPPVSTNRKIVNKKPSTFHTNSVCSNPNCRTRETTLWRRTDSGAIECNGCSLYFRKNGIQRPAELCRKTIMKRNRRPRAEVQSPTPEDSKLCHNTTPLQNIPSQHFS

[6] = target: nhr-34 (F58G6.5) (Caenorhabditis elegans) (UniProt Q21006)
nhr-34 (F58G6.5) (Caenorhabditis elegans), sequence (Q21006 99-268): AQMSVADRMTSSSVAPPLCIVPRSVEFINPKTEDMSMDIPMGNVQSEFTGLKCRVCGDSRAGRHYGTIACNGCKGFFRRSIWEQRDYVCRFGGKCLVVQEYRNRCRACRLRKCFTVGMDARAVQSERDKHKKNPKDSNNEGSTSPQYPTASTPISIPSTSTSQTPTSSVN

[7] = target: T6, nhr-3 (H01A20.1) (Caenorhabditis elegans) (UniProt Q9XTJ4)
T6 sequence: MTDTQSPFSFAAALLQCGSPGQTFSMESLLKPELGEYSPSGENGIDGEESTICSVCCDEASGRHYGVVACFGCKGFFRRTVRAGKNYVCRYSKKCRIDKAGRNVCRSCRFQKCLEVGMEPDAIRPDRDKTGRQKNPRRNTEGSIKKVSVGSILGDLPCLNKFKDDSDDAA

[8] = target: T7, nhr-1 (R09G11.2) (Caenorhabditis elegans) (UniProt Q21878)
T7 sequence: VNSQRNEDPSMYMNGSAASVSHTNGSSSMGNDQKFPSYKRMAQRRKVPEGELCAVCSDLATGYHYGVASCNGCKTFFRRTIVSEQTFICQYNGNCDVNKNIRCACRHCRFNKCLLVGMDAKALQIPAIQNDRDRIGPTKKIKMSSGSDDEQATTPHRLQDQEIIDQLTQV

[9] = target: T8, daf-12 (F11A1.3) (Caenorhabditis elegans) (UniProt G5EFF5)
T8 sequence: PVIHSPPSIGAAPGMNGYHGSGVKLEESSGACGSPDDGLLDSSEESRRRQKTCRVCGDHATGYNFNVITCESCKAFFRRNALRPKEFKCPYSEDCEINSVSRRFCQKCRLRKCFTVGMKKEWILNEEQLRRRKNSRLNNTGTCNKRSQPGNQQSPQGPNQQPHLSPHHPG

[10] = target: atf-7 (C07G2.2) (Caenorhabditis elegans) (UniProt Q86MD3)
atf-7 (C07G2.2) (Caenorhabditis elegans), sequence (Q86MD3 339-508): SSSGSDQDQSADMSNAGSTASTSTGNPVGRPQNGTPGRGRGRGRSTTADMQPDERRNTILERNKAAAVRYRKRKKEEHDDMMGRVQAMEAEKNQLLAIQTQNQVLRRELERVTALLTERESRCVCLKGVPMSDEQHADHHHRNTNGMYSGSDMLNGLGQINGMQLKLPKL

[11] = target: T9, nhr-42 (C33G8.6) (Caenorhabditis elegans) (UniProt O76828)
T9 sequence: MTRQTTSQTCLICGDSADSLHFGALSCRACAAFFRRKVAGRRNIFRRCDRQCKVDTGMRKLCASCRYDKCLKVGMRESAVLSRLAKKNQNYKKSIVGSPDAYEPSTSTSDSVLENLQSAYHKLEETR

[12] = target: T10, nhr-142 (F44E7.8) (Caenorhabditis elegans) (UniProt J7SF93)
T10 sequence: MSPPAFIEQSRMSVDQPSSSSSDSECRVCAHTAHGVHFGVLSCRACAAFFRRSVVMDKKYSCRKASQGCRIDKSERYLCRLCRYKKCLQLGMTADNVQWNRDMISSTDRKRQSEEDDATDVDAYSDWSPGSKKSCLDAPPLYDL

TCTGATCA (double strand) [8-mer TCTGATCA]
binding signal (PBM E-score (-0.5 to 0.5)) [1]: 0.482

TAGATCAA (double strand) [8-mer TAGATCAA]
binding signal (PBM E-score (-0.5 to 0.5)) [2]: 0.465

TGATATCA (double strand) [8-mer TGATATCA]
binding signal (PBM E-score (-0.5 to 0.5)) [3]: 0.474
binding signal (PBM E-score (-0.5 to 0.5)) [4]: 0.483
binding signal (PBM E-score (-0.5 to 0.5)) [5]: 0.493

AGATCAAC (double strand) [8-mer AGATCAAC]
binding signal (PBM E-score (-0.5 to 0.5)) [2]: 0.483
binding signal (PBM E-score (-0.5 to 0.5)) [6]: 0.478
binding signal (PBM E-score (-0.5 to 0.5)) [7]: 0.467

ATAGATCA (double strand) [8-mer ATAGATCA]
binding signal (PBM E-score (-0.5 to 0.5)) [7]: 0.466

GAGACCAA (double strand) [8-mer GAGACCAA]
binding signal (PBM E-score (-0.5 to 0.5)) [6]: 0.475

GGTGATCA (double strand) [8-mer GGTGATCA]
binding signal (PBM E-score (-0.5 to 0.5)) [8]: 0.488

ACAGATCA (double strand) [8-mer ACAGATCA]
binding signal (PBM E-score (-0.5 to 0.5)) [7]: 0.456

GACCAAAA (double strand) [8-mer GACCAAAA]
binding signal (PBM E-score (-0.5 to 0.5)) [1]: 0.476

AAAGTGCA (double strand) [8-mer AAAGTGCA]
binding signal (PBM E-score (-0.5 to 0.5)) [9]: 0.498

GAGTTCAA (double strand) [8-mer GAGTTCAA]
binding signal (PBM E-score (-0.5 to 0.5)) [6]: 0.471

AATGACGT (double strand) [8-mer AATGACGT]
binding signal (PBM E-score (-0.5 to 0.5)) [3]: 0.459
binding signal (PBM E-score (-0.5 to 0.5)) [10]: 0.497

GAAGATCA (double strand) [8-mer GAAGATCA]
binding signal (PBM E-score (-0.5 to 0.5)) [2]: 0.466
binding signal (PBM E-score (-0.5 to 0.5)) [6]: 0.466

TAAGTGCA (double strand) [8-mer TAAGTGCA]
binding signal (PBM E-score (-0.5 to 0.5)) [9]: 0.496

AGCGATCA (double strand) [8-mer AGCGATCA]
binding signal (PBM E-score (-0.5 to 0.5)) [8]: 0.476

CGTCATCC (double strand) [8-mer CGTCATCC]
binding signal (PBM E-score (-0.5 to 0.5)) [3]: 0.487

AAGTGCAG (double strand) [8-mer AAGTGCAG]
binding signal (PBM E-score (-0.5 to 0.5)) [9]: 0.492

CAGACCAA (double strand) [8-mer CAGACCAA]
binding signal (PBM E-score (-0.5 to 0.5)) [1]: 0.479

AAGTACAT (double strand) [8-mer AAGTACAT]
binding signal (PBM E-score (-0.5 to 0.5)) [9]: 0.495

ACTACGAT (double strand) [8-mer ACTACGAT]
binding signal (PBM E-score (-0.5 to 0.5)) [11]: 0.482

AATGATCA (double strand) [8-mer AATGATCA]
binding signal (PBM E-score (-0.5 to 0.5)) [8]: 0.493

AAGTGCAT (double strand) [8-mer AAGTGCAT]
binding signal (PBM E-score (-0.5 to 0.5)) [9]: 0.495

GAGTCACA (double strand) [8-mer GAGTCACA]
binding signal (PBM E-score (-0.5 to 0.5)) [12]: 0.485

AGTGATCA (double strand) [8-mer AGTGATCA]
binding signal (PBM E-score (-0.5 to 0.5)) [8]: 0.495

GTCATAAA (double strand) [8-mer GTCATAAA]
binding signal (PBM E-score (-0.5 to 0.5)) [12]: 0.484

AAGTACAA (double strand) [8-mer AAGTACAA]
binding signal (PBM E-score (-0.5 to 0.5)) [9]: 0.493

TAAGATCA (double strand) [8-mer TAAGATCA]
binding signal (PBM E-score (-0.5 to 0.5)) [2]: 0.474
binding signal (PBM E-score (-0.5 to 0.5)) [7]: 0.477

AAGATCAT (double strand) [8-mer AAGATCAT]
binding signal (PBM E-score (-0.5 to 0.5)) [2]: 0.476

AGACCAAT (double strand) [8-mer AGACCAAT]
binding signal (PBM E-score (-0.5 to 0.5)) [1]: 0.486

ATGATCAC (double strand) [8-mer ATGATCAC]
binding signal (PBM E-score (-0.5 to 0.5)) [8]: 0.486
